From patent US20210002370A1

Biological target: PD-L1 extracellular domain expressed in HEK293 cells (human) (UniProt Q9NZQ7)
Experiment: gradient dilution ELISA on coated PD-L1, serum dilution 200

Sequence of PD-L1 extracellular domain expressed in HEK293 cells (human) (Q9NZQ7 19-238): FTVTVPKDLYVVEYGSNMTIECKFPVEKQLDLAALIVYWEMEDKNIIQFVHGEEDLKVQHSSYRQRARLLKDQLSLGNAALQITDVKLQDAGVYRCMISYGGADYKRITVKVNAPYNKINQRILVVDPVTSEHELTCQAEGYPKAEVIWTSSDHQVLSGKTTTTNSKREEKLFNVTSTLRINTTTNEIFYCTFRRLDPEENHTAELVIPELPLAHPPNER

ELISA OD: 0.631 OD450 nm
Substance: Alpaca serum before immunization
